Residue numbers refer to the chain shown, from its start. In names and notes the source's numbering stands.
B1: D269H: rhTRAIL carrying mutation D269H; DR5-selective TRAIL variant (protein)
chain: MVRERGPQRVAAHITGTRGRSNTLSSPNSKNEKALGRKINSWESSRSGHSFLSNLHLRNGELVIHEKGFYYIYSQTYFRFQEEIKENTKNDKQMVQYIYKYTSYPDPILLMKSARNSCWSKDAEYGLYSIYQGGIFELKENDRIFVSVTNEHLIDMHHEASFFGAFLVG
B2: M1: rhTRAIL carrying mutations D269H, E194I and I196S (protein, UniProt P50591 1-281, looked up, variant D269H E194I I196S)
Tumor necrosis factor ligand …: MAMMEVQGGPSLGQTCVLIVIFTVLLQSLCVAVTYVYFTNELKQMQDKYSKSGIACFLKEDDSYWDPNDEESMNSPCWQVKWQLRQLVRKMILRTSEETISTVQEKQQNISPLVRERGPQRVAAHITGTRGRSNTLSSPNSKNEKALGRKINSWESSRSGHSFLSNLHLRNGELVIHEKGFYYIYSQTYFRFQIESKENTKNDKQMVQYIYKYTSYPDPILLMKSARNSCWSKDAEYGLYSIYQGGIFELKENDRIFVSVTNEHLIDMHHEASFFGAFLVG
B3: D269HT214R: TRAIL variant containing mutations D269H and T214R (protein, UniProt P50591 1-281, looked up, variant D269H T214R)
Tumor necrosis factor ligand …: B2 Tumor necrosis factor ligand … with I194E, S196I, T214R

Columns and labels:
[1] = system: human umbilical vein endothelial cells (HUVEC); assay: Viability of HUVEC; assay type: cell-based; conditions: 50-500 ng/ml, 24 h, MTT
Method: (§1) Human dermal fibroblasts were grown in low glucose DMEM (Sigma) supplemented with 10% fetal calf serum, 50 U/ml penicillin and […] streptomycin; human umbilical vein endothelial cells (HUVEC, PromoCell) were cultured in Endothelial Cell Growth Medium with SupplementMix (PromoCell). Fibroblasts and HUVEC cells were seeded at 1.3×10^5 cells/ml 24 h before treatment with increasing concentrations of TRAIL and DR5-selective variants, D269H and D269HE195R (50-500 ng/ml) for 24 h and cell viability was measured using MTT assay, wherein 200 μg/ml MTT (3-(4,5-dimethylthiazo1-2-yl)-2,5-diphenyl-tetrazolium bromide) was added to control and treated cells and incubated for 3 h at 37° C. The reaction was stopped and the purple formazan precipitate formed was dissolved using dimethyl sulfoxide (DMSO) and the colour intensity was measured at 550 nm on a Wallac multilabel counter. The control value corresponding to untreated cells was taken as 100% and the viability of treated samples was expressed as a percentage of the control. (FIG. 15).

Human dermal fibroblasts = assay: MTT viability of human dermal fibroblasts; assay type: cell-based; conditions: 50-500 ng/ml, 24 h
Method: as §1

HeLa cells = assay: Cell survival / sensitivity of HeLa; assay type: cell-based
Method: (B) Effect of increasing of Bortezomib on cell viability. Hela cells appear to tolerate higher concentration of Bortezomib compared to Caski and SIHA cells (C) Combination therapy with 10 nM Bortezomib incubated for 24 h lead to further decreases in cell viability in cells treated with both TRAIL and two of the DR5 mutants (D) Radiation therapy in combination with TRAIL or the DR5 mutants further decrease cell viability in HELA cells. The DR5 mutant show decrease cell viability at lower concentration of ligand compared to TRAIL.

Caski cells = assay: Cell survival / sensitivity of Caski; assay type: cell-based
DR4 = target: T1, DR4 (Homo sapiens, UniProt O00220); conditions: earlier work referred to; cited from earlier work
T1 construct: the more commonly used dimeric TRAIL-receptor-IgG Fc chimeric constructs

A2780 cells [2] = assay: MTT cytotoxicity in A2780 (Example 6); assay type: cell-based; conditions: A2780 (FIG. 8E)
A2780 cells [3] = assay: Annexin V apoptosis assay in A2780; assay type: cell-based, human; conditions: A2780 ovarian cancer cells
DcR1 = target: T2, DcR1 (Homo sapiens, UniProt O14798); assay: SPR receptor binding assay, immobilized DcR1-Ig; conditions: 0.1-250 nM ligand
T2 construct: soluble, recombinant DcR1-Ig (sDcR1) and DcR2-Ig (sDcR2); purchased R&D Systems
T2 sequence (O14798 26-236 limits assumed): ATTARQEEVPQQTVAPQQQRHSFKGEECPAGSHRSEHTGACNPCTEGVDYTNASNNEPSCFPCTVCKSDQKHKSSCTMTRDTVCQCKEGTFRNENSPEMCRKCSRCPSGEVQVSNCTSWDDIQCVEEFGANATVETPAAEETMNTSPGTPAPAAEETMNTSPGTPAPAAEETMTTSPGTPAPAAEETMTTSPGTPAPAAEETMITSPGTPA
Method: (§2) The response data (in response units) as a function of TRAIL concentration were fitted using a four parameter equation to give an apparent pre-steady state affinity constant.
(§3) Binding experiments were performed at 37° C. using a surface plasmon resonance-based biosensor (Biacore 3000, Biacore AB, Uppsala, Sweden) as previously described^10. In short, DcR1-Ig and DcR2-Ig receptor chimeras (R&D Systems) were captured at a 35 μl/min flow rate using a protein A (Sigma) modified CM5 sensor chip (Biacore). Receptor chimeras were captured at a level of ˜500-800 response units (RU). […] Binding of ligands to the receptors was monitored in real-time. Between injections the protein A sensor surface was regenerated using a 30s pulse of 0.1 M glycine 0.5 M NaCl pH 3. Due to the very slow dissociation of the TRAIL-receptor complex, only pre-steady state binding data could be obtained. In order to obtain data that represent proper high-affinity complex formation, the response at each concentration was recorded 30 sec after the end of the injection. The response data (in response units) as a function of TRAIL concentration were fitted using a four parameter equation to give an apparent pre-steady state affinity constant.
(§4) Affinity of the ligands was assessed by measuring receptor binding in a concentration range of 0.1-250 nM.

DR5 = target: T3, DR5 (Homo sapiens, UniProt O14763); conditions: earlier work referred to; cited from earlier work
T3 construct: Effect of soluble recombinant DR5-Ig (sDR5) on apoptosis induction

SW948 cells = assay: Cell survival / sensitivity of SW948; assay type: cell-based
Colo205 cells [4] = assay: Cell survival / sensitivity of Colo205; assay type: cell-based; conditions: Colo205
Method: (B) Effect of increasing concentrations of Aspirin on cell viability. (C) Effect of increasing concentrations of 5-Flurouracil on cell viability. (D) Combination therapy with 5 mM Aspirin pre-incubated for 24 h lead to further decreases in cell viability in cells treated with both TRAIL and two of the DR5 mutants. (E) 30 minute incubation of DR5 mutants, were sufficient decrease cell viability which was further augmented when cells were pre-incubated for 24 h with Aspirin. The shorter incubation period lead to a decrease potency of TRAIL alone or in combination with Aspirin. […] (G) 30 min incubation of the DR5 mutant was sufficient to decrease cell viability which was not enhanced by 5-Flurouracil, and once again the decease potency of TRAIL is seen. Proteins are indicated as follows: TRAIL stands for rhTRAIL WT; D269H stands for rhTRAIL carrying mutation D269H; E195R stands for rhTRAIL carrying mutations D269H and E195R; and M1 stands for rhTRAIL carrying mutations D269H, E194I and I196S.
TRAIL-induced cell death as a function of concentration was measured with the MTS assay.

Colo205 cells [5] = assay: Colo205 apoptosis after pre-incubation of ligand with soluble receptor-Ig; assay type: cell-based, human; conditions: 10 ng/ml ligand
Method: (A) Effect of soluble recombinant DcR1-Ig (sDcR1) on apoptosis induction by TRAIL and DR5-selective variants. […] All graphs are representatives of two independent repeats. (D) Neutralizing antibodies against DcR1 and DcR2 can augment wtTRAIL- but not DR5-variant induced cell death. […] Induction of apoptosis was measured 3 h post-treatment using Annexin V assay. […] The graphs show the average±SEM of three independent experiments.
Induction of cell death was assessed by Annexin V assay 3 h after treatment (FIG. 14), as described above. […] (FIG. 14C). This confirms that the observed differences in blocking efficacy are due to reduced ability of the decoy receptors to bind and inhibit D269H and D269HE195R.

DcR2 = target: T4, DcR2 (Homo sapiens, UniProt Q9UBN6); assay: SPR receptor binding assay, immobilized DcR2-Ig; conditions: 0.1-250 nM ligand
T4 construct: soluble, recombinant DcR1-Ig (sDcR1) and DcR2-Ig (sDcR2); purchased R&D Systems
T4 sequence (Q9UBN6 56-211 limits assumed): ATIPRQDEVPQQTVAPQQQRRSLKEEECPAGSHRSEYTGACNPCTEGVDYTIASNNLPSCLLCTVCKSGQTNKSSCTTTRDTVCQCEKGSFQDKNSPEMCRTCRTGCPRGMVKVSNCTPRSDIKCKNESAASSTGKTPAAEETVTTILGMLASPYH
Method: as §2, §3, §4

LoVo cells = assay: Cell survival / sensitivity of LoVo; assay type: cell-based
From the text: C) Effect of increasing concentration of 5-Flurouracil on Lovo cells.

ML-1 cells = assay: Cytotoxicity in ML-1 cells; assay type: cell-based
Method: (§5) Colo205 and ML-1 cells were then treated with increasing concentrations of TRAIL or the DR5-specific variants D269H, D269HE195R, and D269H/T214R, and their cytotoxic potential was measured with a 3-(4,5-dimethylthiazol-2-yl)-2,5-diphenyl tetrazolium bromide (MTT) assay.

Colo205 cells [6] = assay: MTT cytotoxicity and DR4/DR5 neutralizing antibodies in Colo205; assay type: cell-based, human; conditions: Colo205, at a lower concentration (FIG. 8C)
Method: To assess the biological activity related to DR5 binding, various cancer cells were used. Colo205 colon carcinoma cells and ML-1 […] myeloid leukemia cells express all four TRAIL receptors on the cell surface, as shown by using FACS analysis (FIG. 7), and are sensitive to TRAIL-induced apoptosis. To test the involvement of DR4 versus DR5 in TRAIL-induced cell death, Colo205 cells were treated with neutralizing anti-DR4 or anti-DR5 antibody for 1 h before the addition of TRAIL. […] In contrast, the DR4 pathway is the major mediator of TRAIL-induced apoptosis in ML-1 cells (FIG. 8A.) To examine whether the DR5-specific TRAIL variants induce cell death in Colo205 cells by way of the DR5 receptor, 1 μg/ml neutralizing anti-DR4 or -DR5 antibodies were administered 1 h before ligand treatment.
as §5

T1 sequence (O00220 24-239 limits assumed): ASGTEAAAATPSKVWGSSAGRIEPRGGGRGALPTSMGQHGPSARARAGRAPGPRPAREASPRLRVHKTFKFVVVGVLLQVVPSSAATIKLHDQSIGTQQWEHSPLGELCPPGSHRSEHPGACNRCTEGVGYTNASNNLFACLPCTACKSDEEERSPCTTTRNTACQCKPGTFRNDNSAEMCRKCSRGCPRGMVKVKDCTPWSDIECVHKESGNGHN

| Molecule | cell viability [1] | cell viability (Human dermal fibroblasts) | cell viability, single agent (HeLa cells) | cell viability, single agent (Caski cells) | binding to DR4 (DR4) | cytotoxic activity compared with wild-type TRAIL (A2780 cells [2]) | increase in apoptosis / efficiency compared to wtTRAIL (A2780 cells [3]) | binding towards DcR1, reduction compared to wtTRAIL (DcR1) | affinity for the DR5 receptor (DR5) | cell viability, single agent (SW948 cells) | cell viability, single agent (Colo205 cells [4]) | effect of pre-incubation with sDcR2 on apoptosis induction (Colo205 cells [5]) | effect of pre-incubation with sDcR1 on pro-apoptotic activity (Colo205 cells [5]; sDcR1 up to 2 μg/ml) | binding toward DcR2 compared to wtTRAIL (DcR2) | cell viability, single agent (LoVo cells) | cell death induction (ML-1 cells) | increase of apoptosis rate compared to wtTRAIL (Colo205 cells [6]) [fold] |
| --- | --- | --- | --- | --- | --- | --- | --- | --- | --- | --- | --- | --- | --- | --- | --- | --- | --- |
| B1 | did not result in a decrease in cell viability | did not result in a decrease in cell viability | comparable | comparable | highly reduced | significantly increased | 3-4 fold | approximately 20 fold | increased | decreased cell viability | significantly less cell viability than TRAIL | only at a two fold higher concentration than for wtTRAIL | failed to reduce | reduced | equal decrease in cell viability | only TRAIL was able to induce cell death | – |
| B2 | – | – | comparable | comparable | – | – | – | – | – | decreased cell viability | significantly less cell viability than TRAIL | – | – | – | equal decrease in cell viability | – | – |
| B3 | – | – | – | – | – | significantly increased | 2 fold | – | – | – | – | – | – | – | – | only TRAIL was able to induce cell death | 1.5 |
